Data reported in US20160355587A1.
Positions count from the first letter of the chain named.

Columns and labels:
[1] = target: T1, human CD166 protein (human) (UniProt Q13740); experiment: ELISA; relative to parental CD166 M9 vk1/HcB
T1 sequence (looked up): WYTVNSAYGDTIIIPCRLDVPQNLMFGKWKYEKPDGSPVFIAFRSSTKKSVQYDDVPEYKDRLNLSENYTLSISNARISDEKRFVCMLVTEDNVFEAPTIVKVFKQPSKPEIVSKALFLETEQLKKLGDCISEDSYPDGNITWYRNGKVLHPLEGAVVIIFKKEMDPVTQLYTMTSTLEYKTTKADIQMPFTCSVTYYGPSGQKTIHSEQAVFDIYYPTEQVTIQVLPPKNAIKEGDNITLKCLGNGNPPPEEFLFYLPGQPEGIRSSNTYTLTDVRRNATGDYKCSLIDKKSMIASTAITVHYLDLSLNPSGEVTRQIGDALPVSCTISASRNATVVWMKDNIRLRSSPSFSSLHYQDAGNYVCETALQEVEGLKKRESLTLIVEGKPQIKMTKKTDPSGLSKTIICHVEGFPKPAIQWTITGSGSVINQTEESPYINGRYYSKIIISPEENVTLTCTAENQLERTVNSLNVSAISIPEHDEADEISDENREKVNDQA

[2] = target: T1, human CD166 protein (human); experiment: ELISA, human CD166 protein coated; apparent Kd

B1: CD166-16522.18-2001 (antibody, part only; not given: linkers and constant regions, V domains shown, not shown: small tags and cut ends)
VH: QITLKESGPTLVKPTQTLTLTCTFSGFSLSTYGMGVGWIRQPPGKALEWLANIWWSEDKHYSPSLKSRLTITKDTSKNQVVLTMTNMDPVDTATYYCVQIDYGNDYAFTYWGQGTLVTVSS
VL, part: LEGWCLHPACLWGAGISSGLLSGRSDNHDIVMTQSPLSLPVTPGEPASISCRSSKSLLHSNGITYLYWYLQKPGQSPQLLIYQMSNLASGVPDRFSGSGSGTDFTLKISRVEAEDVGVYYCAQNLELPYTFGQGTKLEIK
[1]
  Fold Increase in Kd: 13 fold
[2]
  Kd: 0.0577 µM

B2: CD166-16522.19-2001 (antibody, part only; not given: linkers and constant regions, V domains shown, not shown: small tags and cut ends)
VH: B1 VH
VL, part: B1 VL, part with A9L, L11A
[1]
  Fold Increase in Kd: 11 fold
[2]
  Kd: 0.0492 µM

B3: CD166-16522.20-2001 (antibody, part only; not given: linkers and constant regions, V domains shown, not shown: small tags and cut ends)
VH: B1 VH
VL, part: B1 VL, part with A9L, W12A
[1]
  Fold Increase in Kd: 158 fold
[2]
  Kd: 0.7 µM

B4: CD166-16522.21-2001 (antibody, part only; not given: linkers and constant regions, V domains shown, not shown: small tags and cut ends)
VH: B1 VH
VL, part: CLHPLCISSGLLSGRSDNHDIVMTQSPLSLPVTPGEPASISCRSSKSLLHSNGITYLYWYLQKPGQSPQLLIYQMSNLASGVPDRFSGSGSGTDFTLKISRVEAEDVGVYYCAQNLELPYTFGQGTKLEIK
[1]
  Fold Increase in Kd: 33 fold
[2]
  Kd: 0.145 µM
